Results from patent US20240307507A1, “LACTOFERRIN COMPOSITIONS AND METHODS OF USE” (LACTEA THERAPEUTICS LLC, priority 2021, published 2024).

What was measured:
lactoperoxidase (LPO) = assay: Enzymatic colour assay for lactoperoxidase (LPO) activity; assay type: biochemical; details: colorimetric peroxidase substrate turning blue
Source text: An enzymatic assay for lactoperoxidase (LPO) activity was developed utilizing a molecule which in the presence of peroxidase activity turns a blue color.

SARS-COV-2 = SARS-COV-2 Cytopathic Effect (CPE) reduction assay in Vero E6 cells; assay type: cell-based; details: Vero E6 cells, neutral red, three days post-infection
[1] = ELISA antibody binding of Lactoferrin; details: same amount of protein by weight loaded
Experimental: Lactoferrin percentage can be assessed by an enzyme-linked immunosorbent assay (ELISA). In some instances, an ELISA can distinguish the percentage of Lactoferrin in a native protein conformation, such as by using an antibody that specifically binds the native protein conformation of Lactoferrin.
Lactoferrin purity was also assessed by ELISA.

[2] = DSC iron binding capability with excess iron chloride; details: iron chloride in 1000× molar excess
Experimental: The DSC assay was further used to assess Lactoferrin bioactivity, specifically the iron binding capability of the API-E2 Lactoferrin. Iron chloride (FeC13) was added in 1000× molar excess to API-E2 Lactoferrin. In the presence of excess iron, the API-E2 lactoferrin will bind the iron to its open iron binding site.

[3] = Differential Scanning Calorimetry (DSC) unfolding of apolactoferrin and hololactoferrin forms; assay type: physicochemical
Experimental: The assay was also performed with heat-treated API-E2 Lactoferrin. API-E2 Lactoferrin was heated across a range of 50-100° C.

E. coli = assay: Zone of inhibition test; assay type: cell-based
Experimental: A zone of inhibition test was performed to assess bioactivity of API-E2 Lactoferrin. A plate with E. coli was cultured with 100 μg/mL, 10 μg/mL, 1 μg/mL, and 0.1 μg/mL API-E2 Lactoferrin added to paper circles and allowed to diffuse out.

[4] = test system: ECM of primary buccal cells; assay: Lactoferrin ECM association by immunofluorescence, primary buccal cells; assay type: cell-based; details: 100 ug/mL, 1 hr, 37 C
Experimental: Primary buccal cells were next cultured according to a standard protocol (e.g., see Russo et al. Cytotechnology. 2016 October; 68(5): 2105-2114; herein incorporated by reference for all purposes). […] Immunofluorescence imaging was performed as previously described.

[5] = test system: Salivary bacteria (including Lactobacillus, Lactococcus, and Streptococcus mutans); assay: Salivary bacteria acid production by pH testing; assay type: cell-based; details: with sucrose, start pH 7, entire 6 hour period
Experimental: Salivary bacteria (including Lactobacillus, Lactococcus, and Streptococcus mutans) produce acid during growth. This acidification is strongly associated with tooth decay, particularly when it results in pH below 5.5, which is a clinically relevant threshold. A slurry of these bacteria were treated with sucrose to stimulate growth, as well as varying concentrations of API-E2 lactoferrin. Upon the addition of sucrose and API-E2 lactoferrin, the pH was adjusted to 7 through a titration and the change in pH was subsequently monitored over the next 6 hours.

B1: API-E2: purified bovine lactoferrin from raw, untreated milk produced according to Example 1 (protein)
chain: APRKNVRWCTISQPEWFKCRRWQWRMKKLGAPSITCVRRAFALECIRAIAEKKADAVTLDGGMVFEAGRDPYKLRPVAAEIYGTKESPQTHYYAVAVVKKGSNFQLDQLQGRKSCHTGLGRSAGWIIPMGILRPYLSWTESLEPLQGAVAKFFSASCVPCIDRQAYPNLCQLCKGEGENQCACSSREPYFGYSGAFKCLQDGAGDVAFVKETTVFENLPEKADRDQYELLCLNNSRAPVDAFKECHLAQVPSHAVVARSVDGKEDLIWKLLSKAQEKFGKNKSRSFQLFGSPPGQRDLLFKDSALGFLRIPSKVDSALYLGSRYLTTLKNLRETAEEVKARYTRVVWCAVGPEEQKKCQQWSQQSGQNVTCATASTTDDCIVLVLKGEADALNLDGGYIYTAGKCGLVPVLAENRKSSKHSSLDCVLRPTEGYLAVAVVKKANEGLTWNSLKDKKSCHTAVDRTAGWNIPMGLIVNQTGSCAFDEFFSQSCAPGADPKSRLCALCAGDDQGLDKCVPNSKEKYYGYTGAFRCLAEDVGDVAFVKNDTVWENTNGESTADWAKNLNREDFRLLCLDGTRKPVTEAQSCHLAVAPNHAVVSRSDRAAHVKQVLLHQQALFGKNGKNCPDKFCLFKSETKNLLFNDNTECLAKLGGRPTYEEYLGTEYVTAIANLKKCSTSPLLEACAFLTR
With B1 the “LPO enzymatic activity in the sample” value (lactoperoxidase (LPO)) was “neither detected”, the EC50 (SARS-COV-2) was 90 nM and the “increase in antibody binding relative to existing research standards” value [1] was 30%. The “available Apolactoferrin shifted to the Hololactoferrin form” value [2] was 100%, the “Delta H, apolactoferrin peak” value ([3]; 10 mg/mL) was 111.4 ± 2.2 kcal/mol and the “Delta H, hololactoferrin peak” value ([3]; 10 mg/mL) was 151.2 ± 1.72 kcal/mol. The “% of Total, apolactoferrin” value ([3]; native sample without added iron) was 91.26 +/− 1.39% ^, the zone of inhibition (E. coli; 0.1 μg/mL on paper circles) was “No zone of inhibition” and the zone of inhibition (E. coli; 1 μg/mL on paper circles) was “limited zone of inhibition”. The zone of inhibition (E. coli; 10 ug/mL on paper circles) was “complete inhibition”, the zone of inhibition (E. coli; 100 μg/mL on paper circles) was “complete inhibition” and the “ECM association of Lactoferrin” value [4] was “strong binding along the ECM”. For the same molecule, the “pH maintained over testing period” value ([5]; 1 mg/mL) was “above 5.5” and the “pH maintained over testing period” value ([5]; 10 mg/mL) was “above 5.5”.

B2: heat-treated API-E2 Lactoferrin: API-E2 Lactoferrin heated across a range of 50-100° C. (protein, UniProt P24627 20-708, looked up)
Lactotransferrin: APRKNVRWCTISQPEWFKCRRWQWRMKKLGAPSITCVRRAFALECIRAIAEKKADAVTLDGGMVFEAGRDPYKLRPVAAEIYGTKESPQTHYYAVAVVKKGSNFQLDQLQGRKSCHTGLGRSAGWIIPMGILRPYLSWTESLEPLQGAVAKFFSASCVPCIDRQAYPNLCQLCKGEGENQCACSSREPYFGYSGAFKCLQDGAGDVAFVKETTVFENLPEKADRDQYELLCLNNSRAPVDAFKECHLAQVPSHAVVARSVDGKEDLIWKLLSKAQEKFGKNKSRSFQLFGSPPGQRDLLFKDSALGFLRIPSKVDSALYLGSRYLTTLKNLRETAEEVKARYTRVVWCAVGPEEQKKCQQWSQQSGQNVTCATASTTDDCIVLVLKGEADALNLDGGYIYTAGKCGLVPVLAENRKSSKHSSLDCVLRPTEGYLAVAVVKKANEGLTWNSLKDKKSCHTAVDRTAGWNIPMGLIVNQTGSCAFDEFFSQSCAPGADPKSRLCALCAGDDQGLDKCVPNSKEKYYGYTGAFRCLAEDVGDVAFVKNDTVWENTNGESTADWAKNLNREDFRLLCLDGTRKPVTEAQSCHLAVAPNHAVVSRSDRAAHVKQVLLHQQALFGKNGKNCPDKFCLFKSETKNLLFNDNTECLAKLGGRPTYEEYLGTEYVTAIANLKKCSTSPLLEACAFLTR
modifications: heat-treated
With B2 the “DSC apolactoferrin and hololactoferrin peaks detected” value ([3]; same conditions as API-E2) was “loss in both detectable peaks”.

B3: Lactoferrin (“Reagent”): purchased laboratory reagent grade Lactoferrin [Sigma Bovine Colostrum Lactoferrin] (protein, UniProt P24627 20-708, looked up)
Lactotransferrin: APRKNVRWCTISQPEWFKCRRWQWRMKKLGAPSITCVRRAFALECIRAIAEKKADAVTLDGGMVFEAGRDPYKLRPVAAEIYGTKESPQTHYYAVAVVKKGSNFQLDQLQGRKSCHTGLGRSAGWIIPMGILRPYLSWTESLEPLQGAVAKFFSASCVPCIDRQAYPNLCQLCKGEGENQCACSSREPYFGYSGAFKCLQDGAGDVAFVKETTVFENLPEKADRDQYELLCLNNSRAPVDAFKECHLAQVPSHAVVARSVDGKEDLIWKLLSKAQEKFGKNKSRSFQLFGSPPGQRDLLFKDSALGFLRIPSKVDSALYLGSRYLTTLKNLRETAEEVKARYTRVVWCAVGPEEQKKCQQWSQQSGQNVTCATASTTDDCIVLVLKGEADALNLDGGYIYTAGKCGLVPVLAENRKSSKHSSLDCVLRPTEGYLAVAVVKKANEGLTWNSLKDKKSCHTAVDRTAGWNIPMGLIVNQTGSCAFDEFFSQSCAPGADPKSRLCALCAGDDQGLDKCVPNSKEKYYGYTGAFRCLAEDVGDVAFVKNDTVWENTNGESTADWAKNLNREDFRLLCLDGTRKPVTEAQSCHLAVAPNHAVVSRSDRAAHVKQVLLHQQALFGKNGKNCPDKFCLFKSETKNLLFNDNTECLAKLGGRPTYEEYLGTEYVTAIANLKKCSTSPLLEACAFLTR
In the case of B3, the “LPO enzymatic activity in the sample” value (lactoperoxidase (LPO)) is reported as “does not result in a positive enzymatic reaction”, the EC50 (SARS-COV-2) is reported as 140 nM and the “estimated ratio of the apolactoferrin to hololactoferrin peak” value [3] is reported as “nearly equal”. For the same molecule, the “Tm, apolactoferrin peak” value ([3]; 10 mg/mL) was 55 C, the “Tm, hololactoferrin peak” value ([3]; 10 mg/mL) was 85 C and the “ECM association of Lactoferrin” value [4] was “only limited ECM association”.
